# Tested on: Escherichia coli TOP10
# Assay: shrunken log2 fold change of peptide-encoding DNA abundance (4.5 h post-induction vs induction); higher = less antimicrobial activity (less host growth inhibition)
# Conditions: time post-induction: 4.5 h; library: site-saturation at positions 5, 18, 19, 20
# 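Note: peptides expressed intracellularly from a pBAD plasmid library in pooled LB shake-flask culture, induced with 0.3% L-arabinose, DNA abundance read by NGS, three biological replicates, DESeq2 with apeglm shrinkage.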
row,Sequence,shrunken log2 fold change
1,RRIRHRPPRLPRPRPRPMWPPRP,0.0906
2,RRIRKRPPRLPRPRPRPSRRPRP,0.337
3,RRIRRRPPRLPRPRPRPWRKPRP,0.302
4,RRIRWRPPRLPRPRPRPVVDPRP,0.0903
5,RRIRWRPPRLPRPRPRPQFAPRP,0.189
6,RRIRYRPPRLPRPRPRPLDLPRP,-0.0215
7,RRIRVRPPRLPRPRPRPDREPRP,0.0132
8,RRIRCRPPRLPRPRPRPSIIPRP,-0.348
9,RRIRRRPPRLPRPRPRPKKYPRP,-0.103
10,RRIRARPPRLPRPRPRPICKPRP,-0.159
11,RRIRHRPPRLPRPRPRPTGFPRP,0.0428
12,RRIRHRPPRLPRPRPRPDYHPRP,-0.336
13,RRIRRRPPRLPRPRPRPIMKPRP,-0.0396
14,RRIRCRPPRLPRPRPRPMMCPRP,0.0512
15,RRIRCRPPRLPRPRPRPRQIPRP,0.192
16,RRIRLRPPRLPRPRPRPPLPPRP,0.502
17,RRIRSRPPRLPRPRPRPEDKPRP,-0.00968
18,RRIRRRPPRLPRPRPRPCVFPRP,0.022
19,RRIRIRPPRLPRPRPRPFYAPRP,-0.251
20,RRIRSRPPRLPRPRPRPTHAPRP,0.368
21,RRIRIRPPRLPRPRPRPCTVPRP,-0.337
22,RRIRFRPPRLPRPRPRPGCVPRP,0.15
23,RRIRERPPRLPRPRPRPMYSPRP,-0.552
24,RRIRVRPPRLPRPRPRPSYCPRP,-0.18
25,RRIRERPPRLPRPRPRPAFIPRP,-0.012

row,Sequence,shrunken log2 fold change
1,RRIRVRPPRLPRPRPRPTKSPRP,-0.00156
2,RRIRCRPPRLPRPRPRPWSMPRP,-0.308
3,RRIRARPPRLPRPRPRPTDMPRP,-0.0247
4,RRIRNRPPRLPRPRPRPAWTPRP,0.182
5,RRIRHRPPRLPRPRPRPHLYPRP,-0.24
6,RRIRQRPPRLPRPRPRPSNAPRP,-0.198
7,RRIRNRPPRLPRPRPRPPLSPRP,0.502
8,RRIRTRPPRLPRPRPRPKNVPRP,0.0149
9,RRIRPRPPRLPRPRPRPSIMPRP,-0.552
10,RRIRVRPPRLPRPRPRPVTHPRP,-0.277
11,RRIRSRPPRLPRPRPRPIVTPRP,-0.192
12,RRIRSRPPRLPRPRPRPYGWPRP,0.328
13,RRIRSRPPRLPRPRPRPELDPRP,0.674
14,RRIRCRPPRLPRPRPRPSMRPRP,0.303
15,RRIRHRPPRLPRPRPRPEWPPRP,0.228
16,RRIRRRPPRLPRPRPRPGNAPRP,0.304
17,RRIRARPPRLPRPRPRPKSFPRP,0.0951
18,RRIRMRPPRLPRPRPRPYAPPRP,-0.24
19,RRIRFRPPRLPRPRPRPDKAPRP,-0.0262
20,RRIRGRPPRLPRPRPRPQCHPRP,0.48
21,RRIRKRPPRLPRPRPRPNWCPRP,-0.0436
22,RRIRIRPPRLPRPRPRPSIWPRP,-0.0823
23,RRIRGRPPRLPRPRPRPHIKPRP,-0.0279
24,RRIRSRPPRLPRPRPRPGMKPRP,-0.0636
25,RRIRHRPPRLPRPRPRPPKQPRP,-0.00419

row,Sequence,shrunken log2 fold change
1,RRIRVRPPRLPRPRPRPGMDPRP,0.225
2,RRIRDRPPRLPRPRPRPQHIPRP,-0.762
3,RRIRMRPPRLPRPRPRPCLGPRP,0.0639
4,RRIRFRPPRLPRPRPRPRLRPRP,0.378
5,RRIRKRPPRLPRPRPRPYFKPRP,-0.382
6,RRIRYRPPRLPRPRPRPMHTPRP,-0.254
7,RRIRSRPPRLPRPRPRPKSFPRP,0.172
8,RRIRNRPPRLPRPRPRPQKKPRP,0.0889
9,RRIRNRPPRLPRPRPRPIHFPRP,-0.263
10,RRIRLRPPRLPRPRPRPMCIPRP,-0.125
11,RRIRHRPPRLPRPRPRPNCIPRP,-0.753
12,RRIRPRPPRLPRPRPRPEMFPRP,-0.112
13,RRIRCRPPRLPRPRPRPFGSPRP,-0.078
14,RRIRNRPPRLPRPRPRPPADPRP,0.595
15,RRIRLRPPRLPRPRPRPMDTPRP,-0.323
16,RRIRIRPPRLPRPRPRPPKWPRP,-0.00369
17,RRIRWRPPRLPRPRPRPLRSPRP,0.884
18,RRIRLRPPRLPRPRPRPYFWPRP,-0.0237
19,RRIRFRPPRLPRPRPRPNEIPRP,0.232
20,RRIRIRPPRLPRPRPRPWVEPRP,-0.211
21,RRIRCRPPRLPRPRPRPDVNPRP,-0.281
22,RRIRTRPPRLPRPRPRPVYVPRP,-0.62
23,RRIRMRPPRLPRPRPRPVNNPRP,-0.0848
24,RRIRLRPPRLPRPRPRPFQDPRP,0.000192
25,RRIRKRPPRLPRPRPRPQCRPRP,0.162

row,Sequence,shrunken log2 fold change
1,RRIRVRPPRLPRPRPRPCIFPRP,-0.0604
2,RRIRPRPPRLPRPRPRPYNGPRP,-0.656
3,RRIRQRPPRLPRPRPRPTKEPRP,0.0425
4,RRIRHRPPRLPRPRPRPHPHPRP,-0.19
5,RRIRTRPPRLPRPRPRPGAVPRP,0.104
6,RRIRQRPPRLPRPRPRPVIVPRP,-0.0674
7,RRIRARPPRLPRPRPRPFEDPRP,0.0795
8,RRIRDRPPRLPRPRPRPNQMPRP,-0.0987
9,RRIRVRPPRLPRPRPRPFWHPRP,-0.205
10,RRIRCRPPRLPRPRPRPFGFPRP,-0.388
11,RRIRDRPPRLPRPRPRPVCQPRP,0.0526
12,RRIRLRPPRLPRPRPRPDVIPRP,-0.161
13,RRIRLRPPRLPRPRPRPACHPRP,0.186
14,RRIRQRPPRLPRPRPRPEGNPRP,-0.00965
15,RRIRFRPPRLPRPRPRPPMSPRP,0.0816
16,RRIRHRPPRLPRPRPRPYYRPRP,-0.0075
17,RRIRERPPRLPRPRPRPYEQPRP,-0.395
18,RRIRLRPPRLPRPRPRPRTHPRP,0.189
19,RRIRQRPPRLPRPRPRPDPSPRP,-0.132
20,RRIRRRPPRLPRPRPRPAVPPRP,0.146
21,RRIRFRPPRLPRPRPRPYRLPRP,0.0227
22,RRIRRRPPRLPRPRPRPQNWPRP,0.199
23,RRIRNRPPRLPRPRPRPSHIPRP,-0.69
24,RRIRARPPRLPRPRPRPDSSPRP,0.371
25,RRIRYRPPRLPRPRPRPQMTPRP,0.0454

row,Sequence,shrunken log2 fold change
1,RRIRHRPPRLPRPRPRPEMLPRP,-0.32
2,RRIRLRPPRLPRPRPRPTAQPRP,0.104
3,RRIRGRPPRLPRPRPRPEHSPRP,0.114
4,RRIRGRPPRLPRPRPRPITNPRP,0.201
5,RRIRARPPRLPRPRPRPFSWPRP,-0.0923
6,RRIRQRPPRLPRPRPRPDAHPRP,-0.0825
7,RRIRARPPRLPRPRPRPIHSPRP,-0.184
8,RRIRTRPPRLPRPRPRPMTPPRP,0.126
9,RRIRLRPPRLPRPRPRPFYFPRP,-0.432
10,RRIRLRPPRLPRPRPRPNVHPRP,-0.505
11,RRIRIRPPRLPRPRPRPCLVPRP,-0.687
12,RRIRFRPPRLPRPRPRPWHKPRP,-0.413
13,RRIRQRPPRLPRPRPRPHLKPRP,-0.0175
14,RRIRYRPPRLPRPRPRPPHRPRP,-0.0877
15,RRIRMRPPRLPRPRPRPIAMPRP,0.0028
16,RRIRIRPPRLPRPRPRPFKHPRP,-1.2
17,RRIRCRPPRLPRPRPRPKQEPRP,0.0247
18,RRIRHRPPRLPRPRPRPFKYPRP,-0.115
19,RRIRQRPPRLPRPRPRPKSFPRP,0.0406
20,RRIRFRPPRLPRPRPRPPEIPRP,-0.204
21,RRIRHRPPRLPRPRPRPKFNPRP,-0.437
22,RRIRERPPRLPRPRPRPCTIPRP,-0.487
23,RRIRRRPPRLPRPRPRPWITPRP,-0.0428
24,RRIRRRPPRLPRPRPRPKLWPRP,0.701
25,RRIRFRPPRLPRPRPRPACKPRP,-0.0419

row,Sequence,shrunken log2 fold change
1,RRIRLRPPRLPRPRPRPIKWPRP,-0.412
2,RRIRFRPPRLPRPRPRPDFKPRP,-0.296
3,RRIRKRPPRLPRPRPRPMQPPRP,0.288
4,RRIRARPPRLPRPRPRPRFDPRP,0.236
5,RRIRLRPPRLPRPRPRPGHHPRP,-0.2
6,RRIRLRPPRLPRPRPRPQINPRP,-0.506
7,RRIRMRPPRLPRPRPRPHYFPRP,-0.0364
8,RRIRSRPPRLPRPRPRPDDWPRP,0.155
9,RRIRKRPPRLPRPRPRPGPDPRP,0.608
10,RRIRPRPPRLPRPRPRPKIHPRP,-0.427
11,RRIRARPPRLPRPRPRPNLPPRP,0.158
12,RRIRMRPPRLPRPRPRPFYPPRP,-0.401
13,RRIRWRPPRLPRPRPRPLDTPRP,0.0244
14,RRIRCRPPRLPRPRPRPFPGPRP,-0.0106
15,RRIRPRPPRLPRPRPRPDHSPRP,-0.082
16,RRIRDRPPRLPRPRPRPRSPPRP,-0.183
17,RRIRMRPPRLPRPRPRPNANPRP,0.777
18,RRIRSRPPRLPRPRPRPCEVPRP,-0.333
19,RRIRYRPPRLPRPRPRPKHTPRP,-0.567
20,RRIRMRPPRLPRPRPRPYRHPRP,0.0311
21,RRIRYRPPRLPRPRPRPGCKPRP,-0.0843
22,RRIRRRPPRLPRPRPRPSGDPRP,0.233
23,RRIRHRPPRLPRPRPRPVTLPRP,-0.175
24,RRIRVRPPRLPRPRPRPSNPPRP,-0.454
25,RRIRYRPPRLPRPRPRPMNFPRP,-0.0135

# — the supplement of paper PMC9112550, “Optimization of the antimicrobial peptide Bac7 by deep mutational scanning” (BMC Biology, 2022)
